Target: hnRNP A2 (recombinant) (Homo sapiens, UniProt P22626-2 1-341)
Experiment: UV-cross-linking EMSA, competition

B1: A2RE11 (ssRNA)
RNA: GCCAAGGAGCC
Question: Does B1 bind?
Answer: binds

From paper PMC548348
